In US11786578B2, “Modified relaxin polypeptides and their uses” (AMBRX, INC., priority 2010, dated 2023):
Where two headings read alike, the source gives them in different places. Values belong to the molecule of their own block, whether it stands above or below them.

Key:
[1] = IV; cited from earlier work
[2] = in vivo; conditions: for Mean Conc.: male SD rats
Description: This example evaluates the pharmacokinetic properties of wild-type (WT) Relaxin compound following a single subcutaneous injection in SD rats.
SD Rats were received from Charles River Laboratories (CRL) at approximately […] of age (approximately 280 g at study start). The animals were received having been jugular vein catheterized at CRL. Animals then acclimated for 3 days prior to being placed on study.
Animals received a single subcutaneous injection on day 1 and PK samples were collected over the subsequent 12 hours. Blood samples were taken from animals treated with WT rhRelaxin for analysis of serum concentration according to the following sampling schedule (sampling times are approximate): Day 1: pre-dose, 0.33, 0.66, 1, 1.5, 2, 3, 4, 5, 6, 9 and 12 hours post-dose.
Compound concentrations were measured using a bridging ECLA based on an assay which was developed at Ambrx. Concentrations were calculated using a standard curve generated from the corresponding dosed compound and reported in an excel spreadsheet format (see appendix). Pharmacokinetic parameters were estimated using the modeling program WinNonlin (Pharsight, version 5.1). Noncompartmental analysis for individual animal data with linear-up/log-down trapezoidal integration was used, and concentration data was uniformly weighted.
Concentration versus time curves were evaluated by non-compartmental analysis (Pharsight, version 4.1). N=5 rats per group, terminal HL, terminal half-life; Cmax, maximum serum concentration measured; Tmax, time at which Cmax occurred: AUCinf, area under the concentration-time curve for all serum sample/timepoints extrapolated to infinity; Cl, apparent total serum clearance; Vz, apparent volume of distribution during terminal phase. Numbers are mean with SD in parentheses.

[3] = system: primary human cardiac fibroblasts (NHCF-V); conditions: 1 nM
Description: NHCF-V cells were isolated from the ventricle of normal, adult heart tissue. Cells stained positive for smooth muscle α-actin and expressed ≥90% collagen I and ≤10% Von Willebrand factor VIII. Cells at passages 3 through 6 were used for the real-time quantitative reverse transcription-polymerase chain reaction (qRT-PCR) studies. Cells were cultured in FGM™-3 BulletKit™ (Cat. #: CC-4526, Lonza) containing 10% FBS complete medium. At confluence, cells were split and cultured in 6-well plates at a density of 150,000/well for 24 hr in complete medium.
Alter treatment, cells in 6-well plates were harvested or total RN A extraction and qRT-PCR analysis. Total RNA was extracted using the RNeasy Mini Kit (Cat. #: 74106, Qiagen) according to the manufacturer's protocols including the on-column removal of genomic cDNA. Real-time qRT-PCR was performed in a two-step manner; cDNA synthesis and real-time detection were carried out in a PTC-100 Thermal Cycler (MJ Research) and an ABI Prism 7700 Sequence Detection System (Applied Biosystems), respectively. TaqMan Universal PCR Master Mix (Applied Biosystems) was used in subsequent PCR reactions according to the manufacturer's protocols. All qRT-PCR reactions were performed in duplicate. […] Data were analyzed for significance by two-way ANOVA followed by a Bonferroni's multiple comparison test using GraphPad Prism Software, version 5.0.

[4] = target: T1, human RXFP4 (Homo sapiens, UniProt Q8TDU9); assay: Inhibition of forskolin-induced cAMP in human RXFP4/CHO-K1 stable line; type: cell-based; conditions: CHO-K1 stable line, inhibition of forskolin-induced cAMP
T1 construct: expressed in transfected cells
T1 sequence (Q8TDU9 whole entry): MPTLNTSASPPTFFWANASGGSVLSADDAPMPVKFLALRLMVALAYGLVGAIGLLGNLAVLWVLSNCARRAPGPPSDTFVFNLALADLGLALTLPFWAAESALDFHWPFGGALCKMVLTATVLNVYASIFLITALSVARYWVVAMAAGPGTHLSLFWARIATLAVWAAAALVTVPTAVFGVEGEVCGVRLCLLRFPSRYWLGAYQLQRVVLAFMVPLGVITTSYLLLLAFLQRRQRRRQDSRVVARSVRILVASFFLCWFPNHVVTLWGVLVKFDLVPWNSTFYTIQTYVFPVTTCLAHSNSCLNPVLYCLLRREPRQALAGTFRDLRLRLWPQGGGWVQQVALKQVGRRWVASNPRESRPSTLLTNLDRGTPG
Description: (§1) The RXFP cDNAs, RXFP family members, as well as species orthologs, were obtained from commercially available cDNA clones or amplified from tissue RNAs as follows. Human RXFP1: A cDNA clone was obtained from OpenBiosystems (MHS4426-99239031. Human RXFP2: A cDNA clone for transcript variant 1 was obtained from OpenBiosystems (OHS4559-99620528). Cynomolgus monkey RXFP1: The cDNA was cloned out of Mauritian cyno brain RNA by RT-PCR using the following primers: forward: 5′-[…]-3′ (SEQ ID NO: 37); reverse: 5′-[…]-3′ (SEQ ID NO: 38). Dog RXFP1: The cDNA was cloned out of dog brain RNA by RT-PCR using the following primers: forward: 5′-[…]-3′ (SEQ ID NO: 39); reverse: 5′-[…]-3′ (SEQ ID NO: 40). Rat RXFP1: The cDNA was cloned out of Sprague Dawley rat brain RNA by RT-PCR using the following primers: forward: 5′-[…]-3′ (SEQ ID NO: 41); reverse: 5′-[…]-3 (SEQ ID NO: 42)′. Human RXFP3: A Gateway entry clone in vector pDONR221 was obtained from Invitrogen (IOH28381). Human RXFP4: A Gateway entry clone in vector pDONR201 was obtained. Mouse RXFP1: A Gateway entry clone in vector pDONR223 was obtained from OpenBiosystems (OMM4760-101549000). Using standard procedures (Gateway LR recombination), the RXFP entry clones were transferred into expression vector pEF-DEST51 (Invitrogen). In contrast to the all other RXFP clones, human RXFP4 was transferred into pcDNA3.1 (Invitrogen). For each construct, the RXFP cDNA, as well as its proper insertion into the expression vector, was verified by DNA sequencing.
CHO-K1 cells (ATCC #CRL-9618) were prepared for stable line generation by propagating at 37° C. with 5% CO2 in F-12 plus GlutaMAX-I medium (GIBCO #31765) supplemented with 10% fetal bovine heat-inactivated serum (Invitrogen #16140), and 1× Antibiotic-Antimycotic (GIBCO #15240-096). CHO-K1 cells were transfected with 12 μg of the appropriate expression construct plasmid using the FuGENE® 6 reagent (Roche #11814443 001) and the protocol provided by the manufacturer. One day post-transfection cells were replated into medium containing 10 μg of Blasticidin S HCl per mL (GIBCO #A11139-02). […]

[5] = target: T2, human RXFP3 (Homo sapiens, UniProt Q9NSD7); assay: Inhibition of forskolin-induced cAMP in human RXFP3/CHO-K1 stable line; type: cell-based; conditions: CHO-K1 stable line
T2 sequence (Q9NSD7 1-469): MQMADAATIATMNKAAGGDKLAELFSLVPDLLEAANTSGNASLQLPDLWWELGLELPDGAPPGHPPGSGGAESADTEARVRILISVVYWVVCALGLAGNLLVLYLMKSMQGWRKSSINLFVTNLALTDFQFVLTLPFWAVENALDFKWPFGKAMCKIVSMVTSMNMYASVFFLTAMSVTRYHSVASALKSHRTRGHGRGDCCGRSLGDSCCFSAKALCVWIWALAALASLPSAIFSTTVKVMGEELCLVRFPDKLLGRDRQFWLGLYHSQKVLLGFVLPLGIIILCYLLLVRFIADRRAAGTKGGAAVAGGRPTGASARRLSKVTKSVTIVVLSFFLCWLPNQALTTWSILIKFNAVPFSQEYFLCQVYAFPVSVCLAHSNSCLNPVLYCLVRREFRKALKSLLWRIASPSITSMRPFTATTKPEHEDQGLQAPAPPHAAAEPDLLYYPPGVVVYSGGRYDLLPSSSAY
Description: as §1, with “For each construct, the RXFP cDNA, as well as its proper insertion into the expression vector, was verified by DNA sequencing.” left out

[6] = target: T3, human RXFP2 (Homo sapiens, UniProt Q8WXD0); assay: cAMP assay in human RXFP2/CHO-K1 stable line; type: cell-based; conditions: CHO-K1 stable line
T3 sequence (Q8WXD0 whole entry): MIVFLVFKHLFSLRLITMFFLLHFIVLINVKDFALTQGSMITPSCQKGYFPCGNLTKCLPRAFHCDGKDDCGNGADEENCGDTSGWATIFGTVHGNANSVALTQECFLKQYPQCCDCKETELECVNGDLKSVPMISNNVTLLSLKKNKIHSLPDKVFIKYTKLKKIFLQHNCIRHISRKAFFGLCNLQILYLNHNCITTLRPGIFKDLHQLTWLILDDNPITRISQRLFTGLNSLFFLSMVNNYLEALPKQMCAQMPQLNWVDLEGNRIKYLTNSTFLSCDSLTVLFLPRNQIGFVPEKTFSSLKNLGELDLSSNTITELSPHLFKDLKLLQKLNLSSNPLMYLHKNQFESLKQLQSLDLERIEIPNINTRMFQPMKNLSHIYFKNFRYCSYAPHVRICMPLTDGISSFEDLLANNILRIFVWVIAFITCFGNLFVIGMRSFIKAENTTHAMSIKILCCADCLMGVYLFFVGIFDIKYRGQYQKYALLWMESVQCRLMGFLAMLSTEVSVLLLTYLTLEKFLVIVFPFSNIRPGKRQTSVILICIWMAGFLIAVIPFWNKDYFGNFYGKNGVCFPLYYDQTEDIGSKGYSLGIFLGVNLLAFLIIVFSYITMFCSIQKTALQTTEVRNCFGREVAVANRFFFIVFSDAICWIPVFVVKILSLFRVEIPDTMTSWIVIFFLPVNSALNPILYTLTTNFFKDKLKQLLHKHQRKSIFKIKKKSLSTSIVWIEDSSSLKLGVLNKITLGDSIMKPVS
Description: as §1, with “For each construct, the RXFP cDNA, as well as its proper insertion into the expression vector, was verified by DNA sequencing.” left out

[7] = target: T3, human RXFP2; conditions: literature value; read-out: EC50 value reported in the literature, human RXFP2; cited from earlier work
[8] = 0.5 mg/kg SC, SD rats, mean (SD)
[9] = Sprague-Dawley, rat, serum, sc, 0.5 mg/kg

Molecule: CC[C@H](C)[C@@H]1NC(=O)[C@H](C)NC(=O)[C@H]([C@@H](C)CC)NC(=O)[C@H](CCC(N)=O)NC(=O)[C@H](C)NC(=O)[C@H](CCCNC(=N)N)NC(=O)[C@H](C(C)C)NC(=O)[C@H](CC(C)C)NC(=O)[C@H](CCC(=O)O)NC(=O)[C@H](CCCNC(=N)N)NC(=O)CNC(=O)[C@@H](NC(=O)[C@H](CC(C)C)NC(=O)[C@H](CCCCN)NC(=O)[C@@H](NC(=O)[C@@H](NC(=O)[C@H](CCC(=O)O)NC(=O)[C@H](CCC(=O)O)NC(=O)[C@H](CCSC)NC(=O)[C@H](Cc2c[nH]c3ccccc23)NC(=O)[C@H](CO)NC(=O)[C@@H](N)CC(=O)O)C(C)C)[C@@H](C)CC)CSSC[C@@H]2NC(=O)[C@@H](NC(=O)[C@H](CCCCN)NC(=O)[C@H](CC(N)=O)NC(=O)[C@H](C)NC(=O)[C@H](CC(C)C)NC(=O)[C@H](C)NC(=O)[C@H](CO)NC(=O)[C@H](Cc3ccc(O)cc3)NC(=O)[C@H](CC(C)C)NC(=O)[C@@H](N)CCC(N)=O)CSSC[C@H](NC(=O)CNC(=O)[C@H](C(C)C)NC(=O)[C@H](Cc3c[nH]cn3)NC2=O)C(=O)N[C@@H]([C@@H](C)O)C(=O)N[C@@H](CCCCN)C(=O)N[C@@H](CCCNC(=N)N)C(=O)N[C@@H](CO)C(=O)N[C@@H](CC(C)C)C(=O)N[C@@H](C)C(=O)N[C@@H](CCCNC(=N)N)C(=O)N[C@@H](Cc2ccccc2)C(=O)N[C@H](C(=O)O)CSSC[C@@H](C(=O)NCC(=O)N[C@@H](CCSC)C(=O)N[C@@H](CO)C(=O)N[C@H](C(=O)N[C@@H](Cc2c[nH]c3ccccc23)C(=O)N[C@@H](CO)C(=O)O)[C@@H](C)O)NC1=O [RLX-D-WT]
- half-life of intravenously administrated Relaxin 2 in humans [1]: less than 10 minutes
- CL (mL/hr) [2, 8]: 1006 (185) mL/hr
- Vz (mL/kg) [2, 8]: 1159 (284) mL/kg
- AUC(0-inf) [2, 9]: 509 ng·h/mL
- Cmax [2, 9]: 258 ng/mL
- MRT [2, 9]: 93.6 min
- Tmax [2, 9]: 30 min
- half-life ([2]; male, SD, rat, serum, sc, 0.5 mg/kg): 48 min
- Mean Conc. ([2]; serum, 0.5 mg/kg SC, 6 hr): BQL
- Mean Conc. ([2]; serum, 0.5 mg/kg SC, 9 hr): BQL
- Mean Conc. ([2]; serum, 0.5 mg/kg SC, 12 hr): BQL
- Mean Conc. ([2]; serum, 0.5 mg/kg SC, pre-dose (PD)): BQL

Molecule: CC[C@H](C)[C@@H]1NC(=O)[C@H](C)NC(=O)[C@H]([C@@H](C)CC)NC(=O)[C@H](CCC(N)=O)NC(=O)[C@H](C)NC(=O)[C@H](CCCNC(=N)N)NC(=O)[C@H](C(C)C)NC(=O)[C@H](CC(C)C)NC(=O)[C@H](CCC(=O)O)NC(=O)[C@H](CCCNC(=N)N)NC(=O)CNC(=O)[C@@H](NC(=O)[C@H](CC(C)C)NC(=O)[C@H](CCCCN)NC(=O)[C@@H](NC(=O)[C@@H](NC(=O)[C@H](CCC(=O)O)NC(=O)[C@H](CCC(=O)O)NC(=O)[C@H](CCSC)NC(=O)[C@H](Cc2c[nH]c3ccccc23)NC(=O)[C@H](CO)NC(=O)[C@@H](N)CC(=O)O)C(C)C)[C@@H](C)CC)CSSC[C@@H]2NC(=O)[C@@H](NC(=O)[C@H](CCCCN)NC(=O)[C@H](CC(N)=O)NC(=O)[C@H](C)NC(=O)[C@H](CC(C)C)NC(=O)[C@H](C)NC(=O)[C@H](CO)NC(=O)[C@H](Cc3ccc(O)cc3)NC(=O)[C@H](CC(C)C)NC(=O)[C@@H](N)CCC(N)=O)CSSC[C@H](NC(=O)CNC(=O)[C@H](C(C)C)NC(=O)[C@H](Cc3c[nH]cn3)NC2=O)C(=O)N[C@@H]([C@@H](C)O)C(=O)N[C@@H](CCCCN)C(=O)N[C@@H](CCCNC(=N)N)C(=O)N[C@@H](CO)C(=O)N[C@@H](CC(C)C)C(=O)N[C@@H](C)C(=O)N[C@@H](CCCNC(=N)N)C(=O)N[C@@H](Cc2ccccc2)C(=O)N[C@H](C(=O)O)CSSC[C@@H](C(=O)NCC(=O)N[C@@H](CCSC)C(=O)N[C@@H](CO)C(=O)N[C@H](C(=O)N[C@@H](Cc2c[nH]c3ccccc23)C(=O)N[C@@H](CO)C(=O)O)[C@@H](C)O)NC1=O [WT-RLX]
- Maximal inhibition of collagen type I expression vs TGF-β only treatment [3]: ≥ 70%
- cAMP Assay EC50, Human RXFP4 [4]: essentially inactive
- cAMP Assay EC50, Human RXFP3 [5]: essentially inactive

- EC50 [6]: 460 ± 40 pM
B1: INSL3: endogenous ligand for RXFP2 (insulin like 3 protein), R&D Systems (protein, UniProt P51460 21-55; P51460 106-131, looked up)
Insulin-like 3 B chain: LGPAPTPEMREKLCGHHFVRALVRVCGGPRWSTEA
Insulin-like 3 A chain: AAATNPARYCCLSGCTQQDLLTLCPY
- EC50 [7]: 580 pM
